Test results from US20120028912A1.

Target: lysine-acetylated histone H4 peptide SGRGKGG-AcK-GLGK (Lys8 acetylated)
Test: NMR titration, 15N-HSQC chemical shift changes against ligand concentration

B1: bromodomain of P/CAF (residues 719-832 of SEQ ID NO:2), Q92831 719-832 (protein)
chain: SKEPRDPDQLYSTLKSILQQVKSHQSAWPFMEPVKRTEAPGYYEVIRFPMDLKTMSERLKNRYYVSKKLFMADLQRVFTNCKEYNAAESEYYKCANILEKFFFSKIKEAGLIDK
Kd: 346 µM
